This is an account of results in publication PMC5084270 (The Journal of Cell Biology, 2016).

In the assay the target is FLAG-DDB1 (UniProt Q16531 1-1140). As to the kind of experiment: pull-down.
Chain of FLAG-DDB1 (Q16531 whole entry): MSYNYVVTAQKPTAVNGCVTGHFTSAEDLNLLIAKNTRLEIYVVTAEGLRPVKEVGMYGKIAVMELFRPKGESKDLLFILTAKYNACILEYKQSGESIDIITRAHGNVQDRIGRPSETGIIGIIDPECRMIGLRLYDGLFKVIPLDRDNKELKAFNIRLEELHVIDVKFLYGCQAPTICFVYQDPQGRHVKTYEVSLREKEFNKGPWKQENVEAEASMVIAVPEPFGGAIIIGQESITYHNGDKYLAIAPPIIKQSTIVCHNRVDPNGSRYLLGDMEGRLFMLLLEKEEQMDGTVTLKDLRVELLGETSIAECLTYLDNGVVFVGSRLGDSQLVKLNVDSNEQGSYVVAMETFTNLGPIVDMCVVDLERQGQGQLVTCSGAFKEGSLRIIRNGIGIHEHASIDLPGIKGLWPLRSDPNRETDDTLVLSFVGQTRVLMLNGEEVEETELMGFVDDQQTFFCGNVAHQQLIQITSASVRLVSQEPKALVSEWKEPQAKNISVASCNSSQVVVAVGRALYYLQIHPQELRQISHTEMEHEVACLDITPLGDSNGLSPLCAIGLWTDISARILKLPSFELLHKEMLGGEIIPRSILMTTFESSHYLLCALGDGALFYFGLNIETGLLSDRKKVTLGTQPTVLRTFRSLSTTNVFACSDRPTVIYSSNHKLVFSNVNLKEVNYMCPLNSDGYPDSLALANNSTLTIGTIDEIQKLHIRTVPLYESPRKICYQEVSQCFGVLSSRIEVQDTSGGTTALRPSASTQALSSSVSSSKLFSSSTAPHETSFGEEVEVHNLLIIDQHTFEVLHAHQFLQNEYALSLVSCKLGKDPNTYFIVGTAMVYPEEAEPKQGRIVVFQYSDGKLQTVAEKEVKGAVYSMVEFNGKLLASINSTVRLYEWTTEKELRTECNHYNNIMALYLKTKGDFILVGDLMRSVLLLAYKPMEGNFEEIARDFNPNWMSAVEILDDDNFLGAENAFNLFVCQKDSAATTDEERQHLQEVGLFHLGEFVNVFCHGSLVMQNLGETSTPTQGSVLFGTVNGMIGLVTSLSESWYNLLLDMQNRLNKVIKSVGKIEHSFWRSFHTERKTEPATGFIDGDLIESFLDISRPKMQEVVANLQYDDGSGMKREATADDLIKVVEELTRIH

B1: GFP-DDB2 (natural protein)
chain: MAPKKRPETQKTSEIVLRPRNKRSRSPLELEPEAKKLCAKGSGPSRRCDSDCLWVGLAGPQILPPCRSIVRTLHQHKLGRASWPSVQQGLQQSFLHTLDSYRILQKAAPFDRRATSLAWHPTHPSTVAVGSKGGDIMLWNFGIKDKPTFIKGIGAGGSITGLKFNPLNTNQFYASSMEGTTRLQDFKGNILRVFASSDTINIWFCSLDVSASSRMVVTGDNVGNVILLNMDGKELWNLRMHKKKVTHVALNPCCDWFLATASVDQTVKIWDLRQVRGKASFLYSLPHRHPVNAACFSPDGARLLTTDQKSEIRVYSASQWDCPLGLIPHPHRHFQHLTPIKAAWHPRYNLIVVGRYPDPNFKSCTPYELRTIDVFDGNSGKMMCQLYDPESSGISSLNEFNPMGDTLASAMGYHILIWSQEEARTRK
Consider B1, for which the binding result is listed as “binds”.
